Measured values published in paper PMC7335352.

How the values were obtained:
[1] = molecular target: condensin I holocomplex (CI) (Homo sapiens, UniProt O95347;Q9NTJ3;Q15021;Q9BPX3;Q15003 1-1197;1-1288;1-1401;1-1015;1-741); assay: fluorescence polarization; no ATP; 75 mM NaCl; FP: 20 mM Tris pH 7.5, 75 mM NaCl, 2.5% glycerol, 1 mM DTT, room temp, 50 nM DNA; EMSA: 20 mM HEPES pH 8, 300 mM KCl, 5 mM MgCl2, 1 mM DTT, 10% glycerol, on ice; curtains: 40 mM Tris-HCl pH 7.5, 125 mM NaCl, 5 mM MgCl2, 1 mM DTT, 0.5 mg/mL BSA, 37 C; conditions: protein: recombinant; tags: 6xHis-SMC4; CAP-H 2xStrep; copies: 1;1;1;1;1; label: 6-FAM on reverse strand; blunt
[2] = molecular target: condensin II holocomplex (CII) (Homo sapiens, UniProt O95347;Q9NTJ3;P42695;Q86XI2;Q6IBW4 1-1197;1-1288;1-1498;1-1143;1-605); assay: as above; conditions: protein: recombinant; tags: 6xHis-SMC4; CAP-H2 2xStrep; copies: 1;1;1;1;1; label: 6-FAM on reverse strand; blunt

B1: 30-bp dsDNA, 6-FAM (dsDNA)
DNA 1: CTGTCACACCCTGTCACACCTGTCACAC
DNA 2: GTGTGACAGGTGTGACAGGGTGTGACAG
Kd [1]: 3 ± 0.3 µM | Kd [2]: 1.2 ± 0.1 µM
